Data set [1] concerns the target T1, KicGAS (Kaposi sarcoma-associated herpesvirus …, UniProt Q2HR80 1-131).
T1 sequence: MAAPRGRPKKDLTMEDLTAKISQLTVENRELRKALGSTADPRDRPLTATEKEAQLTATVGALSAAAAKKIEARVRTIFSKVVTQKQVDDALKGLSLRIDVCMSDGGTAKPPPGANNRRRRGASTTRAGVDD
Put plainly: fluorescence polarization; Hill n 2.55; EMSA: 20 mM Tris-HCl pH 7.4, 150 mM NaCl, 10% glycerol, on ice, 20 nM FAM-DNA, gel at 4 C; FP: 400 pg/ul FAM-DNA, buffer and temperature not stated; Hill fits. Conditions: protein: recombinant; tags: Avi-His6-SUMO removed (tag-free); label: 5' FAM sense strand; blunt.

For data set [2], the target named is T1, KicGAS. Put plainly: fluorescence polarization; Hill n 2.24; EMSA: 20 mM Tris-HCl pH 7.4, 150 mM NaCl, 10% glycerol, on ice, 20 nM FAM-DNA, gel at 4 C; FP: 400 pg/ul FAM-DNA, buffer and temperature not stated; Hill fits. Conditions: protein: recombinant, tags: Avi-His6-SUMO removed (tag-free).
The target in data set [3] is T1, KicGAS. Put plainly: fluorescence polarization; Hill n 2.21; EMSA: 20 mM Tris-HCl pH 7.4, 150 mM NaCl, 10% glycerol, on ice, 20 nM FAM-DNA, gel at 4 C; FP: 400 pg/ul FAM-DNA, buffer and temperature not stated; Hill fits. The settings on record: protein: recombinant; tags: Avi-His6-SUMO removed (tag-free); label: 5' FAM.
Data set [4] addresses T1, KicGAS. As to the kind of experiment: fluorescence polarization; Hill n 1.50; EMSA: 20 mM Tris-HCl pH 7.4, 150 mM NaCl, 10% glycerol, on ice, 20 nM FAM-DNA, gel at 4 C; FP: 400 pg/ul FAM-DNA, buffer and temperature not stated; Hill fits. The settings on record: protein: recombinant; tags: Avi-His6-SUMO removed (tag-free); label: 5' FAM.
Data set [5] addresses T1, KicGAS. Put plainly: fluorescence polarization; Hill n 1.70; EMSA: 20 mM Tris-HCl pH 7.4, 150 mM NaCl, 10% glycerol, on ice, 20 nM FAM-DNA, gel at 4 C; FP: 400 pg/ul FAM-DNA, buffer and temperature not stated; Hill fits. The settings on record: protein: recombinant; tags: Avi-His6-SUMO removed (tag-free); label: 5' FAM sense strand; blunt.
In data set [6] the target is T1, KicGAS. Put plainly: EMSA; Hill n 1.95; EMSA: 20 mM Tris-HCl pH 7.4, 150 mM NaCl, 10% glycerol, on ice, 20 nM FAM-DNA, gel at 4 C; FP: 400 pg/ul FAM-DNA, buffer and temperature not stated; Hill fits. The settings on record: protein: recombinant; tags: Avi-His6-SUMO removed (tag-free); label: 5' FAM sense strand; blunt.
The target in data set [7] is T1, KicGAS. Put plainly: fluorescence polarization; Hill n 1.84; EMSA: 20 mM Tris-HCl pH 7.4, 150 mM NaCl, 10% glycerol, on ice, 20 nM FAM-DNA, gel at 4 C; FP: 400 pg/ul FAM-DNA, buffer and temperature not stated; Hill fits. The settings on record: protein: recombinant; tags: Avi-His6-SUMO removed (tag-free); label: 5' FAM sense strand; blunt.
Data set [8] concerns the target T1, KicGAS. As to the kind of experiment: fluorescence polarization; Hill n 1.33; EMSA: 20 mM Tris-HCl pH 7.4, 150 mM NaCl, 10% glycerol, on ice, 20 nM FAM-DNA, gel at 4 C; FP: 400 pg/ul FAM-DNA, buffer and temperature not stated; Hill fits. The settings on record: protein: recombinant; tags: Avi-His6-SUMO removed (tag-free); label: 5' FAM.
Data set [9] concerns the target T1, KicGAS. Put plainly: fluorescence polarization; Hill n 1.69; EMSA: 20 mM Tris-HCl pH 7.4, 150 mM NaCl, 10% glycerol, on ice, 20 nM FAM-DNA, gel at 4 C; FP: 400 pg/ul FAM-DNA, buffer and temperature not stated; Hill fits. The settings on record: protein: recombinant; tags: Avi-His6-SUMO removed (tag-free); label: 5' FAM sense strand; blunt.
The target in data set [10] is T1, KicGAS. Put plainly: fluorescence polarization; EMSA: 20 mM Tris-HCl pH 7.4, 150 mM NaCl, 10% glycerol, on ice, 20 nM FAM-DNA, gel at 4 C; FP: 400 pg/ul FAM-DNA, buffer and temperature not stated; Hill fits. Conditions: protein: recombinant; tags: Avi-His6-SUMO removed (tag-free); label: 5' FAM sense strand; blunt.
In data set [11] the target is T1, KicGAS. As to the kind of experiment: fluorescence polarization; Hill n 2.31; EMSA: 20 mM Tris-HCl pH 7.4, 150 mM NaCl, 10% glycerol, on ice, 20 nM FAM-DNA, gel at 4 C; FP: 400 pg/ul FAM-DNA, buffer and temperature not stated; Hill fits. The settings on record: protein: recombinant; tags: Avi-His6-SUMO removed (tag-free); label: 5' FAM sense strand; blunt.
The target in data set [12] is T1, KicGAS. As to the kind of experiment: fluorescence polarization; Hill n 2.15; EMSA: 20 mM Tris-HCl pH 7.4, 150 mM NaCl, 10% glycerol, on ice, 20 nM FAM-DNA, gel at 4 C; FP: 400 pg/ul FAM-DNA, buffer and temperature not stated; Hill fits. The settings on record: protein: recombinant; tags: Avi-His6-SUMO removed (tag-free); label: 5' FAM.
For data set [13], the target named is T1, KicGAS. Put plainly: fluorescence polarization; Hill n 2.05; EMSA: 20 mM Tris-HCl pH 7.4, 150 mM NaCl, 10% glycerol, on ice, 20 nM FAM-DNA, gel at 4 C; FP: 400 pg/ul FAM-DNA, buffer and temperature not stated; Hill fits. The settings on record: protein: recombinant; tags: Avi-His6-SUMO removed (tag-free); label: 5' FAM sense strand; blunt.
The target of data set [14] is T1, KicGAS. Put plainly: EMSA; Hill n 2.20; EMSA: 20 mM Tris-HCl pH 7.4, 150 mM NaCl, 10% glycerol, on ice, 20 nM FAM-DNA, gel at 4 C; FP: 400 pg/ul FAM-DNA, buffer and temperature not stated; Hill fits. Conditions: protein: recombinant; tags: Avi-His6-SUMO removed (tag-free); label: 5' FAM sense strand; blunt.
Data set [15] has as its target T1, KicGAS. Put plainly: fluorescence polarization; Hill n 2.1; EMSA: 20 mM Tris-HCl pH 7.4, 150 mM NaCl, 10% glycerol, on ice, 20 nM FAM-DNA, gel at 4 C; FP: 400 pg/ul FAM-DNA, buffer and temperature not stated; Hill fits. Conditions: protein: recombinant; tags: Avi-His6-SUMO removed (tag-free); label: 5' FAM sense strand; blunt.
Data set [16] addresses T1, KicGAS. As to the kind of experiment: fluorescence polarization; Hill n 1.85; EMSA: 20 mM Tris-HCl pH 7.4, 150 mM NaCl, 10% glycerol, on ice, 20 nM FAM-DNA, gel at 4 C; FP: 400 pg/ul FAM-DNA, buffer and temperature not stated; Hill fits. The settings on record: protein: recombinant, tags: Avi-His6-SUMO removed (tag-free).
In data set [17] the target is T1, KicGAS. As to the kind of experiment: fluorescence polarization; Hill n 2.33; EMSA: 20 mM Tris-HCl pH 7.4, 150 mM NaCl, 10% glycerol, on ice, 20 nM FAM-DNA, gel at 4 C; FP: 400 pg/ul FAM-DNA, buffer and temperature not stated; Hill fits. Conditions: protein: recombinant; tags: Avi-His6-SUMO removed (tag-free); label: 5' FAM sense strand; blunt.
The target in data set [18] is T1, KicGAS. Put plainly: fluorescence polarization; Hill n 0.90; EMSA: 20 mM Tris-HCl pH 7.4, 150 mM NaCl, 10% glycerol, on ice, 20 nM FAM-DNA, gel at 4 C; FP: 400 pg/ul FAM-DNA, buffer and temperature not stated; Hill fits. The settings on record: protein: recombinant; tags: Avi-His6-SUMO removed (tag-free); label: 5' FAM.
Data set [19] concerns the target T1, KicGAS. Put plainly: fluorescence polarization; Hill n 1.88; EMSA: 20 mM Tris-HCl pH 7.4, 150 mM NaCl, 10% glycerol, on ice, 20 nM FAM-DNA, gel at 4 C; FP: 400 pg/ul FAM-DNA, buffer and temperature not stated; Hill fits. Conditions: protein: recombinant; tags: Avi-His6-SUMO removed (tag-free); label: 5' FAM sense strand; blunt.

B1: KS90 (dsDNA)
DNA 1: TCGTCTCGCCTGTCAAATCGTCTATGTTTTTCGGCGCGTTGTGCCAATATAACTCTAGAAACTAATACTGTATCTGTCAGCAGTACTACA
DNA 2: TGTAGTACTGCTGACAGATACAGTATTAGTTTCTAGAGTTATATTGGCACAACGCGCCGAAAAACATAGACGATTTGACAGGCGAGACGA
Turning to B1, the equilibrium dissociation constant (Kd) in the data set with KicGAS [1] is 100 ± 10 nM.

B2: ssKS90 (ssDNA)
DNA: TCGTCTCGCCTGTCAAATCGTCTATGTTTTTCGGCGCGTTGTGCCAATATAACTCTAGAAACTAATACTGTATCTGTCAGCAGTACTACA
Consider B2, for which the Kd with KicGAS [2] (label: 5' FAM) worked out at 100 ± 10 nM.

B3: ssVACV72 (ssDNA)
DNA: ATCCATCAGAAAGAGGTTTAATATTTTTGTGAGACCATCGAAGAGAGAAAGAGATAAAACTTTTTTACGACT
In the case of B3, the Kd in the data set with KicGAS [3] turned out to be 130 ± 10 nM. Turning to ATCTACTAGTGATCTATGACTGATCTGTAC (ssDNA) [ssISD30], the equilibrium dissociation constant (Kd) with KicGAS [4] was found to be 720 ± 50 nM.

B4: ISD20 (dsDNA)
DNA 1: ATCTATGACTGATCTGTACA
DNA 2: TGTACAGATCAGTCATAGAT
For the molecule B4, the dissociation constant (Kd) with KicGAS [5] worked out at 820 ± 80 nM.

B5: ISD25 (dsDNA)
DNA 1: CTAGTGATCTATGACTGATCTGTAC
DNA 2: GTACAGATCAGTCATAGATCACTAG
Take B5: the Kd amounted to 380 ± 30 nM in the data set with KicGAS [6] and 440 ± 30 nM with KicGAS [7]. Turning to CTAGTGATCTATGACTGATCTGTAC (ssDNA) [ssISD25], the equilibrium dissociation constant (Kd) with KicGAS [8] amounted to 1580 ± 220 nM.

B6: dsRNA45 (dsRNA)
RNA 1: UACAGAUCUACUAGUGAUCUAUGACUGAUCUGUACAUGAUCUACA
RNA 2: UGUAGAUCAUGUACAGAUCAGUCAUAGAUCACUAGUAGAUCUGUA
Consider B6, for which the Kd in the data set with KicGAS [9] is 560 ± 50 nM.

B7: ISD12 (dsDNA)
DNA 1: ACTGATCTGTAC
DNA 2: GTACAGATCAGT
Turning to B7, in the data set with KicGAS [10], the binding result is reported as “no binding”.

B8: 30% GC (dsDNA)
DNA 1: ATATCGCTATAGATATCATC
DNA 2: GATGATATCTATAGCGATAT
On to B8, for which, in the data set with KicGAS [11], the dissociation constant (Kd) stood at 1070 ± 60 nM.

B9: ssHSV60 (ssDNA)
DNA: TAAGACACGATGCGATAAAATCTGTTTGTAAAATTTATTAAGGGTACAAATT
As for B9, the Kd with KicGAS [12] was determined as 170 ± 10 nM.

B10: HSV60 (dsDNA)
DNA 1: TAAGACACGATGCGATAAAATCTGTTTGTAAAATTTATTAAGGGTACAAATT
DNA 2: AATTTGTACCCTTAATAAATTTTACAAACAGATTTTATCGCATCGTGTCTTA
Take B10: the dissociation constant (Kd) in the data set with KicGAS [2] (label: 5' FAM sense strand, blunt) came out at 160 ± 10 nM.

B11: 90% GC (dsDNA)
DNA 1: CCGCCAGCCCGCGGGCTGGC
DNA 2: GCCAGCCCGCGGGCTGGCGG
As to B11, in the data set with KicGAS [13], the dissociation constant Kd stood at 1160 ± 80 nM.

B12: ISD45 (dsDNA)
DNA 1: TACAGATCTACTAGTGATCTATGACTGATCTGTACATGATCTACA
DNA 2: TGTAGATCATGTACAGATCAGTCATAGATCACTAGTAGATCTGTA
Regarding B12, the Kd with KicGAS [14] is 120 ± 10 nM; with KicGAS [15] it was 150 ± 20 nM.

B13: DNA-RNA hybrid 45 (DNA:RNA)
RNA: UACAGAUCUACUAGUGAUCUAUGACUGAUCUGUACAUGAUCUACA
DNA: TGTAGATCATGTACAGATCAGTCATAGATCACTAGTAGATCTGTA
Turning to B13, the Kd with KicGAS [16] (label: 5' FAM sense strand (RNA), blunt) stood at 300 ± 20 nM. Turning to TACAGATCTACTAGTGATCTATGACTGATCTGTACATGATCTACA (ssDNA) [ssISD45], the equilibrium dissociation constant (Kd) with KicGAS [16] (label: 5' FAM) was 260 ± 10 nM.

B14: 0% GC (dsDNA)
DNA 1: ATTTAATAATAATTTATTAT
DNA 2: ATAATAAATTATTATTAAAT
Regarding B14, the Kd with KicGAS [17] is 800 ± 50 nM. In the case of ATCTATGACTGATCTGTACA (ssDNA) [ssISD20], the Kd in the data set with KicGAS [18] was determined as 5080 ± 400 nM.

B15: ISD30 (dsDNA)
DNA 1: ATCTACTAGTGATCTATGACTGATCTGTAC
DNA 2: GTACAGATCAGTCATAGATCACTAGTAGAT
Turning to B15, in the data set with KicGAS [19], the Kd worked out at 290 ± 20 nM.

The values are drawn from PMC8450086, “Cooperative DNA binding mediated by KicGAS/ORF52 oligomerization allows inhibition of DNA-induced phase separation and activation of cGAS”.
